The source of these data is patent US20070196376A1 (AstraZeneca / MedImmune, published 2007).

The target in assay [1] is T1, Recombinant human IGF-II (insulin-like growth factor-II) (human, UniProt P01344 25-91).
T1 construct: Bought; also called IGF2; IGF-2
Kind of assay: limited antigen ELISA, supernatant 1:25.

The target of assay [2] is T2, Recombinant human IGF-I (insulin-like growth factor-I) (human, UniProt P05019 49-118).
T2 construct: Bought; also called IGF1; IGF-1
In words: limited antigen ELISA, supernatant 1:25. Background: ELISA stands for enzyme-linked immunosorbent assay.

Assay [3] concerns the target T3, human insulin (human, UniProt P01308 25-54; P01308 90-110, limits assumed).
T3 construct: The mature hormone has an A and a B chain cut from the precursor; also called recombinant insulin; hu-Insulin
Kind of assay: Biacore, mAb on CM5 chip, insulin injected. In general terms: Surface plasmon resonance follows binding to a sensor surface in real time, without labels.

Assay [4] addresses T4, IGF-II/IGFBP-3 complex (UniProt P01344 25-91).
T4 construct: Preformed non-covalent complex; IGF-II 99.97% complexed by IGFBP-3; also called complexed IGF-II/IGFBP-3
In words: Biacore, mAb immobilised, preformed complex injected.

Assay [5] concerns the target T5, IGF-I/IGFBP-3 complex (UniProt P05019 49-118).
T5 construct: Preformed non-covalent complex; IGF-I 99.97% complexed by IGFBP-3; also called complexed IGF-I/IGFBP-3
Described as above.

Assay [6] deals with T6, human insulin-like growth factor-I (IGF-I) (human, UniProt P05019 49-118).
T6 construct: also called IGF1; IGF-1
Kind of assay: Biacore low-resolution screen, mAb captured, IGF-I injected.

Assay [7] concerns the target T6, human insulin-like growth factor-I …. Kind of assay: cell-based or functional assay.
In assay [8] the target is T7, human insulin-like growth factor-II (IGF-II) (human, UniProt P01344 25-91). In words: cell-based or functional assay.
Assay [9] deals with T6, human insulin-like growth factor-I …. In words: cell-based or functional assay. The source holds these as a separate data set.
Assay [10] has as its target T7, human insulin-like growth factor-II …. Kind of assay: cell-based or functional assay. The source holds these as a separate data set.
The target is the same in assay [11]. In words: Biacore low-resolution screen, mAb captured, IGF-II injected.
Assay [12] addresses T6, human insulin-like growth factor-I …. Kind of assay: cell-based or functional assay. The source holds these as a separate data set.
For assay [13], the target named is T7, human insulin-like growth factor-II …. Kind of assay: cell-based or functional assay. This is another data set of the same source.
The target is the same in assay [14]. Kind of assay: cell-based or functional assay. This is another data set of the same source.

B1: mAb 7.159.2 (ATCC Accession Number PTA-7424) (antibody, V domains shown)
VH: QVQLVQSGAEVKKPGASVKVSCKASGYTFTSYDINWVRQATGQGLEWMGWMNPNSGNTGYAQKFQGRVTMTRNTSISTAYMELSSLRSEDTAVYYCARDPYYYYYGMDVWGQGTTVTVSS
VL: QSVLTQPPSVSAAPGQKVTISCSGSSSNIENNHVSWYQQLPGTAPKLLIYDNNKRPSGIPDRFSGSKSGTSATLGITGLQTGDEADYYCETWDTSLSAGRVFGGGTKLTVLG
notes: Fully human, lambda light chain (V1-19/JL2); also called 7.159.1; 7_159_1
With B1, in assay [1], the “LA OD, IGF2 2 ng/ml” value turned out to be 1.65 OD 450 nm and the “LA OD, IGF2 4 ng/ml” value was 2.47 OD 450 nm. In [2], the “LA OD, IGF1 2 ng/ml” value is 0.56 OD 450 nm and the “LA OD, IGF1 4 ng/ml” value was 0.98 OD 450 nm. Moreover, in assay [3], the binding result was “no binding (tested: 502 nM)”. This molecule also yielded a Kd in [4] of over 1000 nM. In addition, the Kd in [5] is over 1000 nM.

B2: mAb 7.34.1 (ATCC Accession Number PTA-7423) (antibody, V domains shown)
VH: QVQLQESGPGLVKPSETLSLTCTVSGGSISSYYWSWIRQPPGRGLEWIGYFFYSGYTNYNPSLKSRVTMSVDTSKNQFSLKLSSVTAADTAVYYCACITGTTKGGMDVWGQGATVTVSS
VL: QSVLTQAPSVSGAPGQRVTISCTGRSSNIGAGYDVHWYQQFPGTAPKLLIYGNSNRPSGVPDRFSGSKSGTSASLAITGLQAEDEADYYCQSYDSSLSGSVFGGGTKLTVLG
notes: Fully human, lambda light chain (V1-13/JL2)
Take B2: in [1], the “LA OD, IGF2 2 ng/ml” value stood at 1.07 OD 450 nm and the “LA OD, IGF2 4 ng/ml” value was 1.84 OD 450 nm. Moreover, in assay [2], the “LA OD, IGF1 2 ng/ml” value amounted to 0.21 OD 450 nm and the “LA OD, IGF1 4 ng/ml” value worked out at 0.44 OD 450 nm. Further, the binding result in [3] is on record as “no binding (tested: 502 nM)”. Moreover, in assay [4], the Kd is over 1000 nM. In [5], the Kd was over 1000 nM.

B3: mAb 7.251.3 (ATCC Accession Number PTA-7422) (antibody, V domains shown)
VH: QVQLQESGPGLVKPSETLSLTCTVSGGSISSYYWSWIRQPPGKGLEWIGYFFYSGYTNYNPSLKSRVTISVDTSKNQFSLKLSSVTAADTAVYYCACITGTTKGGMDVWGQGTTVTVSS
VL: QSVLTQPPSVSGAPGQRVTISCTGSSSNIGAGYDVHWYQQLPGTAPKLLIYGNNNRPSGVPDRFSGSKSGTSASLAITGLQADDEADYYCQSFDSSLSGSVFGGGTKLTVLG
notes: as for B2
In the case of B3, in assay [1], the “LA OD, IGF2 2 ng/ml” value was 1.02 OD 450 nm and the “LA OD, IGF2 4 ng/ml” value worked out at 1.53 OD 450 nm. Also, in [2], the “LA OD, IGF1 2 ng/ml” value was 1.09 OD 450 nm and the “LA OD, IGF1 4 ng/ml” value is 1.31 OD 450 nm. The binding result in assay [3] was “no binding (tested: 502 nM)”. The same molecule displayed a Kd in [4] of over 1000 nM. Moreover, the Kd in [5] was over 1000 nM.

B4: mAb 7.158.2 (antibody, V domains shown)
VH: QLQLQESGPGLVKPSETLSLTCTVSGGSIRSSSYYWGWIRQPPGKGLEWIGGIYYSGSTYYNPSLKSRVTMSVDTSKNQFSLKLSSVTAADTAVYYCARQRGHSSGWWYFDLWGRGTLVTVSS
VL: DIQMTQSPSSVSASVGDSVTITCRASQGISSYLAWYQQKPGKAPKLLIYAASSLQSGVPSRFSGNGSGTDFTLTISSLQPEDFATYYCQQANNFPFTFGPGTKVDIKR
notes: Kappa light chain (L5/JK3); also called 7.158.1; 7_158_1
With B4, in assay [6], the affinity, expressed as Kd, was 0.5 nM; the dissociation rate constant (koff) turned out to be 0.0022 s⁻¹; the kon amounted to 4.4e+06 M⁻¹ s⁻¹. In assay [7], the “% MAX Activation, mean (n = 2), IGF-I pTYR of hIGF-IR in NIH3T3 cells” value was found to be 22.7% and the “EC50 (nM), mean (n = 2), IGF-I pTYR of hIGF-IR in NIH3T3 cells” value is 28.3 nM. In addition, in assay [8], the “% MAX Activation, mean (n = 2), IGF-II pTYR of hIGF-IR in NIH3T3 cells” value was 33.7% and the “EC50 (nM), mean (n = 2), IGF-II pTYR of hIGF-IR in NIH3T3 cells” value stood at 11.3 nM. In assay [9], the “% Inhibition, mean (n = 3), IGF-I Proliferation Assay, NIH3T3/hIGF-IR cells” value stood at 57.4% and the “EC50 (nM), mean (n = 3), IGF-I Proliferation Assay, NIH3T3/hIGF-IR cells” value is 42.8 nM. For the same molecule, in assay [10], the “% Inhibition, mean (n = 2), IGF-II Proliferation Assay, NIH3T3/hIGF-IR cells” value amounted to 54.6% and the “EC50 (nM), mean (n = 2), IGF-II Proliferation Assay, NIH3T3/hIGF-IR cells” value was 36 nM. In addition, in assay [11], the Kd is 0.197 nM, the koff is 0.00067 s⁻¹ and the kon turned out to be 3.4e+06 M⁻¹ s⁻¹. Besides, in assay [12], the “EC50 (nM), n = 1, IGF-I pTYR, BxPC3 cells” value was 4.5 nM; the “EC50 (nM), n = 2, IGF-I pTYR, BxPC3 cells” value is 3.6 nM; the “Max % Inhibition (333.3 nM), n = 1, IGF-I pTYR, BxPC3 cells” value was determined as 92.9%; the “Max % Inhibition (333.3 nM), n = 2, IGF-I pTYR, BxPC3 cells” value came out at 89.4%. Also, in [13], the “EC50 (nM), n = 2, IGF-II pTYR, BxPC3 cells” value was 4.2 nM; the “Max % Inhibition (133.3 nM), n = 2, IGF-II pTYR, BxPC3 cells” value is 74%; the “Max % Inhibition (333.3 nM), n = 1, IGF-II pTYR, BxPC3 cells” value came to 92.4%. Besides, in assay [14], the “EC50 (nM), n = 1, IGF-II Proliferation, BxPC3 cells” value was 0.0013 nM; the “Max % Inhibition (133.3 nM), n = 2, IGF-II Proliferation, BxPC3 cells” value amounted to 148%; the “Max % Inhibition (333.3 nM), n = 1, IGF-II Proliferation, BxPC3 cells” value amounted to 86.3%.

B5: mAb 7.158.2 (antibody, V domains shown)
VH: QLQLQESGPGLVKPSETLSLTCTVSGGSIRSSSYYWGWIRQPPGKGLEWIGGIYYSGSTYYNPSLKSRVTMSVDTSKNQFSLKLSSVTAADTAVYYCARQRGHSSGWWYFDLWGRGTLVTVSS
VL: DIQMTQSPSSVSASVGDSVTITCRASQGISSYLAWYQQKPGKAPKLLIYAASSLQSGVPSRFSGNGSGTDFTLTISSLQPEDFATYYCQQANNFPFTFGPGTKVDIKR
notes: also called 7.158.1; 7_158_1
With B5, in [1], the “LA OD, IGF2 2 ng/ml” value was 1.42 OD 450 nm and the “LA OD, IGF2 4 ng/ml” value worked out at 2.46 OD 450 nm. In assay [2], the “LA OD, IGF1 2 ng/ml” value turned out to be 1.71 OD 450 nm and the “LA OD, IGF1 4 ng/ml” value is 3 OD 450 nm.

B6: mAb 7.234.2 (antibody, V domains shown)
VH: QLQLQESGPGLVKPSETLSLTCTVSGGSINSSSNYWGWIRQPPGKGLAWIGGIYYSGSTYYNPSLRSRVTMSVDTSKNQFSLKLSSVTAADTAVYYCARQRGHSSGWWYFDLWGRGTLVTVSS
VL: DIQMTQSPSSVSASVGDRVTITCRASRGISSWLAWYQQRPGKAPKLLIYTASSLQSGVPSRFSGSGSGTDFTLTISSLQPEDFATYYCQQANSFPFTFGPGTKVDIKR
notes: also called 7.234.1; 7_234_1
On to B6, for which, in assay [1], the “LA OD, IGF2 2 ng/ml” value is 1.4 OD 450 nm and the “LA OD, IGF2 4 ng/ml” value is 2.44 OD 450 nm. In assay [2], the “LA OD, IGF1 2 ng/ml” value was found to be 0.7 OD 450 nm and the “LA OD, IGF1 4 ng/ml” value is 1.79 OD 450 nm. Moreover, the binding result in assay [3] is given as “no binding (tested: 502 nM)”.

A word on the Kd: it is the free concentration of one partner at which half of the binding sites on the other are occupied at equilibrium, for simple one-to-one binding. A higher Kd goes with weaker binding. The koff is the first-order rate constant of dissociation. Usually kon stands for a measure of how fast the partners come together. Lower therefore signals slow association.
